Measured values: patent publication US20160151410A1, “CLEARANCE OF BIOACTIVE LIPIDS FROM MEMBRANE STRUCTURES BY CYCLODEXTRINS” (The Trustees of Columbia University in the City of New York, priority 2013, published 2016)

Tests used:
Assay type in all cases: biochemical
[1] = Phospholipase A activity assay; details: amount of enzyme used for LDL digestion
Description: (§1) Triglyceride hydrolase activity of CEase and LIPC was determined with DMPTB as substrate according to Choi et al. (Choi et al., 2003) Phospholipase A activity of CEase and LIPC was assayed similarly as triglyceride hydrolase activity but with 1.5 mM of 1,2-bis(heptanoylthio)glycerophosphocholine as substrate and assay buffer containing 10 mM of CaCl2 instead of 1 mM of EDTA.

[2] = Triglyceride hydrolase activity assay; details: amount of enzyme used for LDL digestion
Description: as §1

[3] = test system: classical pathway of complement system; test: Complement activation (C3 fixation) by LIPC- or CEase-digested immobilized LDL with human serum; details: 0-50 μg/ml LIPC; 0-2 hours
Description: 96-well MaxiSorp plates were coated with fresh human LDL (A, D, E), VLDL (B), or NaOH-hydrolyzed LDL (C). After blocking with BSA, the plates, except (C), were digested with LIPC. To test complement activation, the plates were incubated with diluted native human serum (N), C1q-depleted human serum (Cd), factor B-depleted human serum (Bd), or human serum containing Mg-EGTA (ME). C3 fixation on the plate was detected with a monoclonal anti-C3d antibody followed by HRP-conjugated secondary antibody. Specific conditions for LIPC digestion and HRP-catalyzed color development of each experiment were outlined as following: LIPC was used at 10 μg/ml for (A, B, E), 0-50 μg/ml for (D), and no LIPC for (C). LIPC degradation was 1 hour for (D), 2 hours for (A, B), and 0-2 hours for (E). Color development was 15 minutes for (A, B, C, E) and 10 minutes for (D). For NaOH hydrolysis of LDL, 1.35 mg/ml of LDL was incubated in 0.15M NaOH solution at 25° C. for up to 60 minutes. Aliquots were taken out and neutralized with 0.15M HCl at 1, 10, 20, 60 minutes.
LIPC and CEase, both having 8 μUnits of phospholipase A1 activity but having 3 μUnits and 8125 μUnits of triglyceride hydrolase activity respectively, were used for 2 hours digestion of immobilized LDL. Complement activation with diluted native human serum is then determined as in FIG. 1. The HRP-catalyzed color development was 15 minutes.
Human LDL coating and 1 hour (C) or 2 hours (A, B) LIPC digestion was performed as described in FIG. 1. (A) For complement activation, 0-50 μM of phosphocholine was added into diluted native human serum. […]
After thorough washing of the plate, C3 fixation and final membrane attack complex formation on the plate were determined with anti-human C3d antibody and anti-human C5b-9 antibody, in combination with HRP-conjugated secondary antibody, respectively. […] The final peroxidase activity was monitored at 450 nm with 3,3′,5,5′-tetramethyl-benzidine and hydrogen peroxide as substrates after 10 or 15 minutes reaction at room temperature.

B1: LIPC: recombinant human LIPC (hepatic lipase) (protein, UniProt P11150 23-499, looked up)
Hepatic triacylglycerol lipase: LGQSLKPEPFGRRAQAVETNKTLHEMKTRFLLFGETNQGCQIRINHPDTLQECGFNSSLPLVMIIHGWSVDGVLENWIWQMVAALKSQPAQPVNVGLVDWITLAHDHYTIAVRNTRLVGKEVAALLRWLEESVQLSRSHVHLIGYSLGAHVSGFAGSSIGGTHKIGRITGLDAAGPLFEGSAPSNRLSPDDANFVDAIHTFTREHMGLSVGIKQPIGHYDFYPNGGSFQPGCHFLELYRHIAQHGFNAITQTIKCSHERSVHLFIDSLLHAGTQSMAYPCGDMNSFSQGLCLSCKKGRCNTLGYHVRQEPRSKSKRLFLVTRAQSPFKVYHYQFKIQFINQTETPIQTTFTMSLLGTKEKMQKIPITLGKGIASNKTYSFLITLDVDIGELIMIKFKWENSAVWANVWDTVQTIIPWSTGPRHSGLVLKTIRVKAGETQQRMTFCSENTDDLLLRPTQEKIFVKCEIKSKTSKRKIR
- PLA1 activity [1]: 8 μUnits
- TGhydrolase activity [2]: 3 μUnits
- complement activation, dependence on LIPC degradation [3]: both dose and time-dependent
